This data set concerns the molecule itself. Kind of data set: cryo-EM structure; Dmc1 (2.5 uM) with 0.125 uM 96-mer ssDNA in HR buffer with 1.5 mM CaCl2 and 5 mM ADP, 30 °C, 5 min, then 8 mM CHAPSO; interdigitated filaments deconvolved into single filaments; filament formation required the ssDNA.

The record followed here is PMC12409439 (The Journal of Biological Chemistry, 2025).

B1: Saccharomyces cerevisiae Dmc1 (natural protein, S. cerevisiae)
chain: MSVTGTEIDSDTAKNILSVDELQNYGINASDLQKLKSGGIYTVNTVLSTTRRHLCKIKGLSEVKVEKIKEAAGKIIQVGFIPATVQLDIRQRVYSLSTGSKQLDSILGGGIMTMSITEVFGEFRCGKTQMSHTLCVTTQLPREMGGGEGKVAYIDTEGTFRPERIKQIAEGYELDPESCLANVSYARALNSEHQMELVEQLGEELSSGDYRLIVVDSIMANFRVDYCGRGELSERQQKLNQHLFKLNRLAEEFNVAVFLTNQVQSDPGASALFASADGRKPIGGHVLAHASATRILLRKGRGDERVAKLQDSPDMPEKECVYVIGEKGITDSSD
notes: Dmc1, S. cerevisiae, expressed from a plasmid encoding 6XHisDmc1; Stood as a helical filament assembled with a 96-mer ssDNA, ADP, Mg2+ and Ca2+; six protomers were modelled; No removal of the His tag is described; The N-terminal end of the tag is read from the printed name 6XHisDmc1; also called Dmc1-ADP; source: E. coli BL21 (DE3) Rosetta2, purified (Talon resin, heparin sepharose)
For the protein B1, the binding result is “binds”.
